Test results taken from publication PMC9700851, “Interaction kinetics between p115-RhoGEF and Gα13 are determined by unique molecular interactions affecting agonist sensitivity” (Communications Biology, 2022).
Positions count from the first letter of the chain named. Values belong to the molecule of their own block, whether it stands above or below them.

Legend:
Test in all cases: FRET or BRET; single-cell FRET in intact HEK293T cells co-transfected with TPα receptor, Gβ1 and Gγ2; donor mTurquoise2 (or CFP) on the Gα subunit, acceptor YFP on the RhoGEF; F535/F480 emission ratio on superfusion with the agonist U-46619 and after its washout (AUC of decay over the 10 min washout); room temperature, buffer pH 7.3
[1] = target: T1, Gα13(135)R128A (mouse, UniProt P27601 1-377, R128A)
T1 construct: Gα13, mouse; also called Gα13-R128A; source: HEK293T, transfected, in intact cells
T1 sequence (looked up): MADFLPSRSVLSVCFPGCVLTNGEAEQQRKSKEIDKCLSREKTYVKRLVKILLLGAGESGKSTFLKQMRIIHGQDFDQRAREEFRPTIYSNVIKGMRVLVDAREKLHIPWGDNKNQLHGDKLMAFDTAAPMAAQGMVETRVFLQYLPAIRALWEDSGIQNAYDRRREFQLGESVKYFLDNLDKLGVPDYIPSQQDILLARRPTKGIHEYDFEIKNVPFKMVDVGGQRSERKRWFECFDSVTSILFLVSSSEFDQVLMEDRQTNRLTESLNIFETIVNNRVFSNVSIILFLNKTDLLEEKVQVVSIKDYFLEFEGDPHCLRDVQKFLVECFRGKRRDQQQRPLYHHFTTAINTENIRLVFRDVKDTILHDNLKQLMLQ

[2] = target: Gα13(135) (mTurquoise2 between amino acids 135 and 136) (mouse) (UniProt P27601)
[3] = target: Gα13-mTurq2 (mTurquoise2 between amino acids 127 and 128) (mouse) (UniProt P27601)
[4] = target: Gα13(135)R128A (mouse) (UniProt P27601)
[5] = target: T2, Gα13-mTurq2 (mTurquoise2 between amino acids 127 and 128) (mouse, UniProt P27601 1-377); settings: partners not purified
T2 construct: Gα13, mouse; co-expressed with human TPα receptor, human Gβ1 and bovine Gγ2; also called Gα13(127); mTurq2-Gα13; source: HEK293T, transfected, in intact cells; not shown: mTurquoise2, internal (after residue 127), kept
T2 sequence (looked up): T1 sequence (looked up) with A128R

[6] = target: T3, Gα13(135) (mTurquoise2 between amino acids 135 and 136) (mouse, UniProt P27601 1-377); settings: partners not purified
T3 construct: Gα13, mouse; Gibson assembly; also called wt-Gα13; source: HEK293T, transfected, in intact cells
T3 sequence (looked up): T1 sequence (looked up) with A128R

Molecule: p115-R (p115-RhoGEF amino acids 1-245) (from UniProt Q61210 1-245) (domain or fragment)
mean AUC of decay of the FRET signal after agonist washout (arbitrary unit) [3]: 343

Molecule: eYFP-p115-RhoGEF (from UniProt Q61210 1-920) (natural protein)
mean AUC of decay of the FRET signal after agonist washout (arbitrary unit) [2]: 284 | mean AUC of decay of the FRET signal after agonist washout (arbitrary unit) [4]: 417 | mean AUC of decay of the FRET signal after agonist washout (arbitrary unit) [3]: 331

Molecule: p115-Rshort (p115-RhoGEF amino acids 34-235) (from UniProt Q61210 34-235) (domain or fragment)
mean AUC of decay of the FRET signal after agonist washout (arbitrary unit) [3]: 444

B1: LARG-PR (LARG amino acids 1-558) (domain or fragment, human, UniProt Q9NZN5 1-558, looked up)
chain: MSGTQSTITDRFPLKKPIRHGSILNRESPTDKKQKVERIASHDFDPTDSSSKKTKSSSEESRSEIYGLVQRCVIIQKDDNGFGLTVSGDNPVFVQSVKEDGAAMRAGVQTGDRIIKVNGTLVTHSNHLEVVKLIKSGSYVALTVQGRPPGSPQIPLADSEVEPSVIGHMSPIMTSPHSPGASGNMERITSPVLMGEENNVVHNQKVEILRKMLQKEQERLQLLQEDYNRTPAQRLLKEIQEAKKHIPQLQEQLSKATGSAQDGAVVTPSRPLGDTLTVSEAETDPGDVLGRTDCSSGDASRPSSDNADSPKSGPKERIYLEENPEKSETIQDTDTQSLVGSPSTRIAPHIIGAEDDDFGTEHEQINGQCSCFQSIELLKSRPAHLAVFLHHVVSQFDPATLLCYLYSDLYKHTNSKETRRIFLEFHQFFLDRSAHLKVSVPDEMSADLEKRRPELIPEDLHRHYIQTMQERVHPEVQRHLEDFRQKRSMGLTLAESELTKLDAERDKDRLTLEKERTCAEQIVAKIEEVLMTAQAVEEDKSSTMQYVILMYMKHLGVK
notes: LARG, human, with the PDZ and RH domains; source: HEK293T, transfected, in intact cells
mean AUC of decay of the FRET signal after agonist washout [5]: 464 arbitrary unit

B3: LARG-Rshort (LARG amino acids 360-561) (domain or fragment, human, UniProt Q9NZN5 360-561, looked up)
chain: TEHEQINGQCSCFQSIELLKSRPAHLAVFLHHVVSQFDPATLLCYLYSDLYKHTNSKETRRIFLEFHQFFLDRSAHLKVSVPDEMSADLEKRRPELIPEDLHRHYIQTMQERVHPEVQRHLEDFRQKRSMGLTLAESELTKLDAERDKDRLTLEKERTCAEQIVAKIEEVLMTAQAVEEDKSSTMQYVILMYMKHLGVKVKE
notes: LARG, human, RH domain without the region N-terminal to it; source: HEK293T, transfected, in intact cells
mean AUC of decay of the FRET signal after agonist washout [5]: 380 arbitrary unit

Continued, values first:

mean AUC of decay of the FRET signal after agonist washout (arbitrary unit) [1]: 444 | mean AUC of decay of the FRET signal after agonist washout (arbitrary unit) [2]: 453 | mean AUC of decay of the FRET signal after agonist washout (arbitrary unit) [3]: 468
Molecule: p115-E32G (from UniProt Q61210 1-920) (natural protein)

mean AUC of decay of the FRET signal after agonist washout (arbitrary unit) [3]: 404
Molecule: Chimera 3 (full length LARG with the RH domain of p115, amino acids 44-232, instead of LARG amino acids 370-558) (from UniProt Q9NZN5 1-369; Q61210 44-232; Q9NZN5 559-1544)

mean AUC of decay of the FRET signal after agonist washout (arbitrary unit) [3]: 274
Molecule: Chimera 2 (full length p115 with the RH domain of LARG, amino acids 370-558, instead of p115 amino acids 44-232) (from UniProt Q61210 1-43; Q9NZN5 370-558; Q61210 233-912)

mean AUC of decay of the FRET signal after agonist washout (arbitrary unit) [3]: 270
Molecule: Chimera1 (p115-RhoGEF amino acids 1-232 and LARG amino acids 559-1544) (from UniProt Q61210 1-232; Q9NZN5 559-1544)

mean AUC of decay of the FRET signal after agonist washout [5]: 448 arbitrary unit | mean AUC of decay of the FRET signal after agonist washout [6]: 462 arbitrary unit | mean AUC of decay of the FRET signal after agonist washout ([1]; partners not purified): 495 arbitrary unit
B2: eYFP-human LARG (leukemia-associated RhoGEF) (natural protein, UniProt Q9NZN5 1-1544, looked up)
chain: MSGTQSTITDRFPLKKPIRHGSILNRESPTDKKQKVERIASHDFDPTDSSSKKTKSSSEESRSEIYGLVQRCVIIQKDDNGFGLTVSGDNPVFVQSVKEDGAAMRAGVQTGDRIIKVNGTLVTHSNHLEVVKLIKSGSYVALTVQGRPPGSPQIPLADSEVEPSVIGHMSPIMTSPHSPGASGNMERITSPVLMGEENNVVHNQKVEILRKMLQKEQERLQLLQEDYNRTPAQRLLKEIQEAKKHIPQLQEQLSKATGSAQDGAVVTPSRPLGDTLTVSEAETDPGDVLGRTDCSSGDASRPSSDNADSPKSGPKERIYLEENPEKSETIQDTDTQSLVGSPSTRIAPHIIGAEDDDFGTEHEQINGQCSCFQSIELLKSRPAHLAVFLHHVVSQFDPATLLCYLYSDLYKHTNSKETRRIFLEFHQFFLDRSAHLKVSVPDEMSADLEKRRPELIPEDLHRHYIQTMQERVHPEVQRHLEDFRQKRSMGLTLAESELTKLDAERDKDRLTLEKERTCAEQIVAKIEEVLMTAQAVEEDKSSTMQYVILMYMKHLGVKVKEPRNLEHKRGRIGFLPKIKQSMKKDKEGEEKGKRRGFPSILGPPRRPSRHDNSAIGRAMELQKARHPKHLSTPSSVSPEPQDSAKLRQSGLANEGTDAGYLPANSMSSVASGASFSQEGGKENDTGSKQVGETSAPGDTLDGTPRTLNTVFDFPPPPLDQVQEEECEVERVTEHGTPKPFRKFDSVAFGESQSEDEQFENDLETDPPNWQQLVSREVLLGLKPCEIKRQEVINELFYTERAHVRTLKVLDQVFYQRVSREGILSPSELRKIFSNLEDILQLHIGLNEQMKAVRKRNETSVIDQIGEDLLTWFSGPGEEKLKHAAATFCSNQPFALEMIKSRQKKDSRFQTFVQDAESNPLCRRLQLKDIIPTQMQRLTKYPLLLDNIAKYTEWPTEREKVKKAADHCRQILNYVNQAVKEAENKQRLEDYQRRLDTSSLKLSEYPNVEELRNLDLTKRKMIHEGPLVWKVNRDKTIDLYTLLLEDILVLLQKQDDRLVLRCHSKILASTADSKHTFSPVIKLSTVLVRQVATDNKALFVISMSDNGAQIYELVAQTVSEKTVWQDLICRMAASVKEQSTKPIPLPQSTPGEGDNDEEDPSKLKEEQHGISVTGLQSPDRDLGLESTLISSKPQSHSLSTSGKSEVRDLFVAERQFAKEQHTDGTLKEVGEDYQIAIPDSHLPVSEERWALDALRNLGLLKQLLVQQLGLTEKSVQEDWQHFPRYRTASQGPQTDSVIQNSENIKAYHSGEGHMPFRTGTGDIATCYSPRTSTESFAPRDSVGLAPQDSQASNILVMDHMIMTPEMPTMEPEGGLDDSGEHFFDAREAHSDENPSEGDGAVNKEEKDVNLRISGNYLILDGYDPVQESSTDEEVASSLTLQPMTGIPAVESTHQQQHSPQNTHSDGAISPFTPEFLVQQRWGAMEYSCFEIQSPSSCADSQSQIMEYIHKIEADLEHLKKVEESYTILCQRLAGSALTDKHSDKS
notes: LARG (leukemia-associated RhoGEF), human; also called YFP-LARG; wt-LARG; source: HEK293T, transfected, in intact cells; not shown: YFP, N-terminal, kept
